# According to PMC9943652:
# T1: XPG (human, UniProt P28715 2-1186)
# T1 sequence: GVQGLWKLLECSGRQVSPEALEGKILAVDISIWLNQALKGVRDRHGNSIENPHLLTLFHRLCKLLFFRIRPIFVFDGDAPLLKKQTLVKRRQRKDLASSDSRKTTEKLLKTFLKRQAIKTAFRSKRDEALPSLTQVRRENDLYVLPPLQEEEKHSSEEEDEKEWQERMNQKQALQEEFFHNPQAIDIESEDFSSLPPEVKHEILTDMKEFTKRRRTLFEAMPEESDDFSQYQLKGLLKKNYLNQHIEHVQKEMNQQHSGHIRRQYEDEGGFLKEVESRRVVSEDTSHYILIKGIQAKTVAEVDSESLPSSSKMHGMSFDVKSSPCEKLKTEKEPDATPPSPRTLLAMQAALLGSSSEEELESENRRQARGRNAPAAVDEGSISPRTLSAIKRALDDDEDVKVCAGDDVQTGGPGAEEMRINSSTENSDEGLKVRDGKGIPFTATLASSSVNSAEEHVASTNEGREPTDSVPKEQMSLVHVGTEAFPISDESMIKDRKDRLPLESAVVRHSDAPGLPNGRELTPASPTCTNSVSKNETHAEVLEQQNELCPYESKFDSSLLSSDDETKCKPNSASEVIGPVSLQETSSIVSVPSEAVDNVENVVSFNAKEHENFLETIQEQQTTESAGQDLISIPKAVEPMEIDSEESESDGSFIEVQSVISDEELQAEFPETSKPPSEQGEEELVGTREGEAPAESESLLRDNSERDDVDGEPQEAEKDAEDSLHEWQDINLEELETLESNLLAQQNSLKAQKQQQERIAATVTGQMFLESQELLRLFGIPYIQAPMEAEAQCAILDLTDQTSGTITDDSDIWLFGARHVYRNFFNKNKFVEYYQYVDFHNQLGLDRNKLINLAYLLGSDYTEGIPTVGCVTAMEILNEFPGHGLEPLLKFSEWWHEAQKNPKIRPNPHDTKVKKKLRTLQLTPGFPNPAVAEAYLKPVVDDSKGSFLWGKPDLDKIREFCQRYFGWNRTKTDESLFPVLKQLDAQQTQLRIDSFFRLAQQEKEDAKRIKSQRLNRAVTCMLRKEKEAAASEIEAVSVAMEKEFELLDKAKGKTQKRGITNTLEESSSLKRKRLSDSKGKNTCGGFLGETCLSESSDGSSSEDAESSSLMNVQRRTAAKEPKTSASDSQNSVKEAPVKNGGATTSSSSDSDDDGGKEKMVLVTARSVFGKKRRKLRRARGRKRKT
# B1: 3'Cy5 40ss/24ds (mixed)
# DNA 1: TTTTTTTTTTTTTTTTTTTTTTTTTTTTTTTTTTTTTTTTGCTGTTGCCCGTCTCACTGGTGAA
# DNA 2: TTCACCAGTGAGACGGGCAACAGC
# Key:
# Test in all cases: EMSA
# [1] = target: coreTFIIH (7-subunit: XPB, XPD, p62, p52, p44, p34, p8);XPG (human;human, UniProt P19447;P18074;P32780;Q92759;Q13888;Q13889;Q6ZYL4;P28715 …, |)
# XPG = target: T1, XPG
# [2] = target: coreTFIIH (7-subunit: XPB, XPD, p62, p52, p44, p34, p8) (human, UniProt P19447;P18074;P32780;Q92759;Q13888;Q13889;Q6ZYL4 …)
binder,measurement,setting,value
B1,Kd,[1],~19 nM
same,Kd,XPG,~134 nM
same,Kd,[2],~82 nM
